Data: the PETadex activity labels (doi:10.3389/fbioe.2022.865787)

Tests used:
[1] = substrate: p-NP-C10; conditions: pH 8; 35 °C
[2] = substrate: p-NP-C12; conditions: pH 8; 35 °C
[3] = substrate: p-NP-C14; conditions: pH 8; 35 °C
[4] = substrate: p-NP-C16; conditions: pH 8; 35 °C
[5] = substrate: p-NP-C18; conditions: pH 8; 35 °C
[6] = substrate: p-NP-C2; conditions: pH 8; 35 °C
[7] = substrate: p-NP-C4; conditions: pH 8; 35 °C
[8] = substrate: p-NP-C6; conditions: pH 8; 35 °C
[9] = substrate: p-NP-C8; conditions: pH 8; 35 °C
[10] = substrate: pNPB; test: Proxy for plastic degradation [Absorbance @ 405nm]
[11] = substrate: PET; test: Proxy for plastic degradation [Released monomer concentration (HPLC/LC-MS) (TPA)]; conditions: pH 8.5
[12] = substrate: PET; test: Proxy for plastic degradation [Released monomer concentration (HPLC/LC-MS) (BHET)]; conditions: pH 8.5
[13] = substrate: PET; test: Proxy for plastic degradation [Released monomer concentration (HPLC/LC-MS) (MHET)]; conditions: pH 8.5
[14] = substrate: PET; test: Proxy for plastic degradation [Released monomer concentration (HPLC/LC-MS) (Total aromatic products)]; conditions: pH 8.5

B1: unnamed (protein)
chain: MLTHSISPEETDGGRRTPLSRMSRLAARVGVTLSLAAGLTAGVTAPAHASNPYERGPAPTESSVTAVRGYFDTDTDTVSSLVSGFGGGTIYYPTDTSEGTFGGVVIAPGYTASQSSMAWMGHRIASQGFVVFTIDTITRYDQPDSRGRQIEAALDYLVEDSDVADRVDGNRLAVMGHSMGGGGTLAAAENRPELRAAIPLTPWHLQKNWSDVEVPTMIIGAENDTVASVRTHSIPFYESLDEDLERAYLELDGASHFAPNISNTVIAKYSISWLKRFVDEDERYEQFLCPPPDTGLFSDFSDYRDSCPHTT
Km [1]: 4930 µM | kcat [1]: 69.9 s⁻¹ | kcat/Km [1]: 14200 M⁻¹ s⁻¹ | Km [2]: 1680 µM | kcat [2]: 30.5 s⁻¹ | kcat/Km [2]: 18200 M⁻¹ s⁻¹ | Km [3]: 190 µM | kcat [3]: 9.87 s⁻¹ | kcat/Km [3]: 51900 M⁻¹ s⁻¹ | Km [4]: 150 µM | kcat [4]: 4.79 s⁻¹ | kcat/Km [4]: 31900 M⁻¹ s⁻¹ | Km [5]: 450 µM | kcat [5]: 14.3 s⁻¹ | kcat/Km [5]: 31800 M⁻¹ s⁻¹ | Km [6]: 550 µM | kcat [6]: 4.47 s⁻¹ | kcat/Km [6]: 8130 M⁻¹ s⁻¹ | Km [7]: 1330 µM | kcat [7]: 14.1 s⁻¹ | kcat/Km [7]: 10600 M⁻¹ s⁻¹ | Km [8]: 4610 µM | kcat [8]: 41.7 s⁻¹ | kcat/Km [8]: 9050 M⁻¹ s⁻¹ | Km [9]: 2550 µM | kcat [9]: 79.4 s⁻¹ | kcat/Km [9]: 31100 M⁻¹ s⁻¹ | Proxy for plastic degradation ([10]; pH 8): 100% | Proxy for plastic degradation ([10]; pH 8, 0 h): 100% | Proxy for plastic degradation ([10]; pH 8.5): 97.5% | Proxy for plastic degradation ([11]; 12 h): 5 µM | Proxy for plastic degradation ([11]; 24 h): 12.5 µM | Proxy for plastic degradation ([11]; 36 h): 25 µM | Proxy for plastic degradation ([11]; 48 h): 50 µM | Proxy for plastic degradation ([11]; 60 h): 70 µM | Proxy for plastic degradation ([11]; 72 h): 75 µM | Proxy for plastic degradation ([11]; 84 h): 120 µM | Proxy for plastic degradation ([11]; 96 h): 150 µM | Proxy for plastic degradation ([11]; 108 h): 180 µM | Proxy for plastic degradation [12]: 1 µM | Proxy for plastic degradation ([13]; 12 h): 5 µM | Proxy for plastic degradation ([13]; 24 h): 10 µM | Proxy for plastic degradation ([13]; 36 h): 20 µM | Proxy for plastic degradation ([13]; 48 h): 70 µM | Proxy for plastic degradation ([13]; 60 h): 105 µM | Proxy for plastic degradation ([13]; 72 h): 140 µM | Proxy for plastic degradation ([13]; 84 h): 135 µM | Proxy for plastic degradation ([13]; 96 h): 155 µM | Proxy for plastic degradation ([13]; 108 h): 150 µM | Proxy for plastic degradation ([14]; 30 °C): 45 µM | Proxy for plastic degradation ([14]; 35 °C): 130 µM | Proxy for plastic degradation ([14]; 40 °C): 230 µM | Proxy for plastic degradation ([14]; 45 °C): 330 µM | Proxy for plastic degradation ([14]; 50 °C): 100 µM

B2: unnamed (protein)
chain: MLTHSISPEETDGGRRTPLSRMSRLAARVGVTLSLAAGLTAGVTAPAHASNPYERGPAPTESSVTAVRGYFDTDTDTVSSLVSGFGGGTIYYPTDTSEGTFGGVVIAPGYTASQSSMAWMGHRIASQGFVVFTIDTITRYDQPDSRGRQIEAALDYLVEDSDVADRVDGNRLAVMGHSMGGGGTLAAAENRPELRAAIPLTPWHLQKNWSDVEVPTMIIGAENDTVASVRTHSIPFYESLDEDLERAYLELAGASHFAPNISNTVIAKYSISWLKRFVDEDERYEQFLCPPPDTGLFSDFSDYRDSCPHTT
Proxy for plastic degradation ([10]; pH 8, 0 h): 100% | Proxy for plastic degradation ([10]; pH 8, 5 °C): 15% | Proxy for plastic degradation ([10]; pH 8, 10 °C): 17.5% | Proxy for plastic degradation ([10]; pH 8, 15 °C): 20% | Proxy for plastic degradation ([10]; pH 8, 20 °C): 32.5% | Proxy for plastic degradation ([10]; pH 8, 25 °C): 50% | Proxy for plastic degradation ([10]; pH 8, 30 °C): 90% | Proxy for plastic degradation ([10]; pH 8, 35 °C): 100% | Proxy for plastic degradation ([10]; pH 8, 40 °C): 80% | Proxy for plastic degradation ([10]; pH 8, 45 °C): 70% | Proxy for plastic degradation ([10]; pH 8, 50 °C): 37.5% | Proxy for plastic degradation ([10]; pH 8, 55 °C): 25% | Proxy for plastic degradation ([10]; pH 8, 60 °C): 15% | Proxy for plastic degradation ([10]; pH 8, 65 °C): 12.5% | Proxy for plastic degradation ([10]; pH 8, 70 °C): 10% | Proxy for plastic degradation ([10]; pH 8, 20 h): 75% | Proxy for plastic degradation ([10]; pH 8, 40 h): 70% | Proxy for plastic degradation ([10]; pH 8, 60 h): 55% | Proxy for plastic degradation ([10]; pH 8, 80 h): 40% | Proxy for plastic degradation ([10]; pH 8, 100 h): 35% | Proxy for plastic degradation ([10]; pH 8, 120 h): 25%

B3: unnamed (protein)
chain: MLTHSISPEETDGGRRTPLSRMSRLAARVGVTLSLAAGLTAGVTAPAHASNPYERGPAPTESSVTAVRGYFDTDTDTVSSLVSGFGGGTIYYPTDTSEGTFGGVVIAPGYTASQSSMAWMGHRIASQGFVVFTIDTITRYDQPDSRGRQIEAALDYLVEDSDVADRVDGNRLAVMGHSMGGGGTLAAAENRPELRAAIPLTPWHLQKNWSDVEVPTMIIGAENDTVASVRTHSIPFYESLDEDLERAYLELDGASHFAPNISNTVIAKYSISWLKRFVDEDERYEQFLCPPPDTGLFSDFADYRDSCPHTT
Proxy for plastic degradation ([10]; pH 8, 0 h): 100% | Proxy for plastic degradation ([10]; pH 8, 5 °C): 42.5% | Proxy for plastic degradation ([10]; pH 8, 10 °C): 45% | Proxy for plastic degradation ([10]; pH 8, 15 °C): 47.5% | Proxy for plastic degradation ([10]; pH 8, 20 °C): 55% | Proxy for plastic degradation ([10]; pH 8, 25 °C): 75% | Proxy for plastic degradation ([10]; pH 8, 30 °C): 100% | Proxy for plastic degradation ([10]; pH 8, 35 °C): 92.5% | Proxy for plastic degradation ([10]; pH 8, 40 °C): 87.5% | Proxy for plastic degradation ([10]; pH 8, 45 °C): 77.5% | Proxy for plastic degradation ([10]; pH 8, 50 °C): 62.5% | Proxy for plastic degradation ([10]; pH 8, 55 °C): 35% | Proxy for plastic degradation ([10]; pH 8, 60 °C): 20% | Proxy for plastic degradation ([10]; pH 8, 65 °C): 17.5% | Proxy for plastic degradation ([10]; pH 8, 70 °C): 15% | Proxy for plastic degradation ([10]; pH 8, 20 h): 87.5% | Proxy for plastic degradation ([10]; pH 8, 40 h): 77.5% | Proxy for plastic degradation ([10]; pH 8, 60 h): 65% | Proxy for plastic degradation ([10]; pH 8, 80 h): 62.5% | Proxy for plastic degradation ([10]; pH 8, 100 h): 60% | Proxy for plastic degradation ([10]; pH 8, 120 h): 57.5%

B4: unnamed (protein)
chain: MNFPRASRLMQAAVLGGLMAVSAAATAQTNPYARGPNPTAASLEASAGPFTVRSFTVSRPSGYGAGTVYYPTNAGGTVGAIAIVPGYTARQSSIKWWGPRLASHGFVVITIDTNSTLDQPSSRSSQQMAALRQVASLNGTSSSPIYGKVDTARMGVMGWSMGGGGSLISAANNPSLKAAAPQAPWDSSTNFSSVTVPTLIFACENDSIAPVNSSALPIYDSMSRNAKQFLEINGGSHSCANSGNSNQALIGKKGVAWMKRFMDNDTRYSTFACENPNSTRVSDFRTANCS
Proxy for plastic degradation ([11]; 12 h, part of the chain shown): 30 µM | Proxy for plastic degradation ([11]; 24 h, part of the chain shown): 37.5 µM | Proxy for plastic degradation ([11]; 36 h, part of the chain shown): 42.5 µM | Proxy for plastic degradation ([11]; 48 h, part of the chain shown): 47.5 µM | Proxy for plastic degradation ([11]; 60 h, part of the chain shown): 50 µM | Proxy for plastic degradation ([11]; 72 h, part of the chain shown): 60 µM | Proxy for plastic degradation ([11]; 84 h, part of the chain shown): 70 µM | Proxy for plastic degradation ([11]; 96 h, part of the chain shown): 80 µM | Proxy for plastic degradation ([11]; 108 h, part of the chain shown): 100 µM | Proxy for plastic degradation ([13]; 12 h, part of the chain shown): 140 µM | Proxy for plastic degradation ([13]; 24 h, part of the chain shown): 150 µM | Proxy for plastic degradation ([13]; 36 h, part of the chain shown): 160 µM | Proxy for plastic degradation ([13]; 48 h, part of the chain shown): 165 µM | Proxy for plastic degradation ([13]; 60 h, part of the chain shown): 155 µM | Proxy for plastic degradation ([13]; 72 h, part of the chain shown): 155 µM | Proxy for plastic degradation ([13]; 84 h, part of the chain shown): 158 µM | Proxy for plastic degradation ([13]; 96 h, part of the chain shown): 165 µM | Proxy for plastic degradation ([13]; 108 h, part of the chain shown): 158 µM | Proxy for plastic degradation ([14]; 16 h, part of the chain shown): 175 µM | Proxy for plastic degradation ([14]; 27.75 h, part of the chain shown): 200 µM | Proxy for plastic degradation ([14]; 39.5 h, part of the chain shown): 210 µM | Proxy for plastic degradation ([14]; 51.25 h, part of the chain shown): 220 µM | Proxy for plastic degradation ([14]; 60 h, part of the chain shown): 215 µM | Proxy for plastic degradation ([14]; 74.75 h, part of the chain shown): 225 µM | Proxy for plastic degradation ([14]; 86.5 h, part of the chain shown): 235 µM | Proxy for plastic degradation ([14]; 98.25 h, part of the chain shown): 240 µM | Proxy for plastic degradation ([14]; 110 h, part of the chain shown): 250 µM
